Experiment: label from the status in PepcDB records

With “MLSIFYWLLAIFLINLGIFIFVLTHERRSMWAGLTLTSTLMFLAFLAIDALIIIEAQFPQQHQIIANLLLLASVGVALFILVFVFLLIIIFLYNGIKILIKEGTKWTNFLSLGTGIAIILLIFAYPVLGRSTSAPWFRFIYLFLSMSIFYIIFIMVMYTLTSWLNLININTKKLNYIVVLGAGLLGKKVTPLLASRINRGIEIYHKNPDSKLIMSGGQGPDEEIPESHAMAAYAEEHGVPKSDIIIEDRSKTTNQNLKFSHQLMKPNSTFCIVTNSYHVYRALVLAKRQGLQCIGYGAKTKWYFTLNAFIREFIAYLVITKKMQCSIIGSLAVINIIFAALYYASTQFFS” the protein production was “failed”.

In the case of “MLSIKANHFMPIVRLKENEPFEAALRRFKRTIEKTGLLTELRSREFYEKPTAERKRKHAAAVKRHYKRIRSQQLPPRLYLEHHHHHH”, the protein production is reported as “failed”.

With “MLSIKQLSYALAVSKTLHFRKAADLCHVRQSTLSTGVSELERQLGIKIFERDNKKVLVTPLGREVLDKASNIMLQLEDMAHLDHSCGEP” the protein production was “failed”.

For “MLSKFIKTTLATSLLITLSACSNLKSPVPPAKKADQEKLYESTKNYNALIAMYRADLKHFKDPMTQFKLAKSYYHIGDSKSSVLYLKPLRFTKQPFNNEIELLYIRNLIQLGKYQEAQTVATDLIKMSPQNSEAYNLRGISSAQQGELAKAEQDMNKARELFINDVVAINNIAMLNILNNDYRNAVNLLLPQYLNGSKDSRLIHNLVFALVKSGDIDYATDIIRKESLYASPEDLINALKNTEKAPKVGR”, the protein production was “failed”.

For “MLSKPMELLRPSKGMINVHPIQRGGILTEEARKVLLEWGDGYSMCDICLEGRVDLLDKPPVKRFKEEVAEFLGMDEVRFTAGARHAKFVAMSGFKGALVVDSLAHYTTYIAAELNGLRVYEVPNTGYPEFRIEAESYTDVFEKVKEETGDYPAVALLTHADYKYGNLADAKKVAEICRDYGIPLILNTAYTSGIMEVSGRETGCDFIVASGHKSWAATAPIGILATTFEFAERVFRVSEVRGNWSGRAFTKKEVALFGCSPVYGLPLVTLMASFPVVKERVKRWKEEVEKARWFVEEMEKIEGVMLLGERPKNHTLMNFETPSFNLIAKKHRRKGYFLYHELKERGIFGVQPGMTRNVKLNVYGLSWEEVERVAEAFKEIAEKYGLEVED”, the protein production was “failed”.

In the case of “MLSLKKSLNPPSSFGWSDPDPCKWTHIVCTGTKRVTRIQIGHSGLQGTLSPDLRNLSELERLELQWNNISGPVPSLSGLASLQVLMLSNNNFDSIPSDVFQGLTSLQSVEIDNNPFKSWEIPESLRNASALQNFSANSANVSGSLPGFLGPDEFPGLSILHLAFNNLEGELPMSLAGSQVQSLWLNGQKLTGDITVLQNMTGLKEVWLHSNKFSGPLPDFSGLKELESLSLRDNSFTGPVPASLLSLESLKVVNLTNNHLQGPVPVFKSSVSVDLDKDSNSFCLSSPGECDPRVKSLLLIASSFDYPPRLAESWKGNDPCTNWIGIACSNGNITVISLEKMELTGTISPEFGAIKSLQRIILGINNLTGMIPQELTTLPNLKTLDVSSNKLFGKVPGFRSNVVVNTNGNPDIGKDKSSLSSPGSSSPSGGSGSGINGDKDRRGMKSSTFIGIIVGSVLGGLLSIFLIGLLVFCWYKKRQKRFSGSESSNAVVVHPRHSGSDNESVKITVAGSSVSVGGISDTYTLPGTSEVGDNIQMVEAGNMLISIQVLRSVTNNFSSDNILGSGGFGVVYKGELHDGTKIAVKRMENGVIAGKGFAEFKSEIAVLTKVRHRHLVTLLGYCLDGNEKLLVYEYMPQGTLSRHLFEWSEEGLKPLLWKQRLTLALDVARGVEYLHGLAHQSFIHRDLKPSNILLGDDMRAKVADFGLVRLAPEGKGSIETRIAGTFGYLAPEYAVTGRVTTKVDVYSFGVILMELITGRKSLDESQPEESIHLVSWFKRMYINKEASFKKAIDTTIDLDEETLASVHTVAELAGHCCAREPYQRPDMGHAVNILSSLVELWKPSDQNPEDIYGIDLDMSLPQALKKWQAYEGRSDLESSTSSLLPSLDNTQMSIPTRPYGFAESFTSVDGR”, the protein production is reported as “not failed”.

With “MLSLLISVKKLFSSFLGILKKEDTRALFFLLATTLLSGTIFYSTVEKLSPLDSLYLSFMTLTTIGYGDVHPVTDLGKIFTMIYATVGLGIMAMFISVVAKSYLYSKQSHHHHHHKNKEHSAEKSSEK” the protein production was “failed”.

With “MLSLLLILPVIGALIIGFFPGNIPAKQLRQITEVFAVLTLVWSLLVLFKFDVTDPQFQFQEYLPWIPQLGLNYSLAIDGLSLPLVILNNLLTGVAIYSIGPNVNRSRLYYGLILLINAGISGALLAQNLLLFIVFYELELIPFYLMIAIWGGEKRGYASMKFLLYTAFSGLLVLAAFLGMSLLSGSHSFDYNPEITQTFTESAQTILLILILLGFGIKIPLVPLHTWLPDAYTEASPATAILLGGILAKLGTYGIIRFGLQLFPQTWAQFAPVLAIIGTVTVLYGALSAIAQKDIKRMVAYSSIGHMGYILVAAAAGTELSVLGAVAQMVSHGLILALLFHLVGIVERKAGTRDLDVLNGLMNPIRGLPLTSALLITGGMASAGIPGLVGFAAEFIVFQGSFPTFPIPTLLCILASGLTAVYFVILLNRTCFGKLDNQRAYYPKVLASEMIPALVLTAIIFFLGVQPNYLVHWTQTTTNEMIAQLPHETSAIEQLAQGVTLP” the protein production was “failed”.

With “MLSRLDQRSGGRSPIRAVRTRNSAMRTSRRAIVAFVLGVSALAVPALAFEGAPVNQKDATIPVVTTLPGAAGAVRSKVSPATQETSLSALQYAAEGGHPIAQWKLGRMYANGDGVAQDDVRAFEYFSRIANAHAEDSPSAPQAQIVANAFVALGRYYLSGIPNSKIKPDQDRAREMFSYAASYFGNADAQYDLARLYLKTPDASREDFRYGARWLGLAAQKGQHEAQALLGQMLFNGDRLPRQAARGLMWLTLARDSAGSEETWIKESYNRAFAKASDDDRAMCLQMLEQWVQGRRE” the protein production was “failed”.

For “MLSRLRHRLLAVAAAAGLTGALLSFGAAPPADAAVPATIPLKITNNSARGDAVHIYNLGTSLTTGQQGWADENGTFHAWPAGGNPPTPAPDASIPGPAAGQTKTIRIPKLSGRIYFSYGQKLDFRLTTGGLVQPAVQNPSDPNRNILFNWSEYTLNDGGLWLNSTQVDMFSAPYTVGVQRADGGVTSAGQLKAGGYRGVFDALRAQPGWGGLIQTRPDGTVLRALAPLYGVETGALPASVMDDYINRVWQKYTTTTLTVTPFGDRPDTKYFGRVSGNVMNFTNTSGAVVTSFQKPDASSVFGCHRLLDAPNDQVRGPISRTLCAGFNRSTLLSNPNQPDPSAANFYRDPVTNHYARIIHERMADGKAYAFAFDDVGNHESLVHDGNPAEARLTLAPLDLEHHHHHH”, the protein production was “not failed”.

With “MLSTMQPTLATNYTTIPCYQLCYQHYATNLAPIIRSTGSMILNYAIIRLSLQQNLCYRKTCVRDTAQYDPPCNKIYTTGLCCSRTYKTLQAFFLDMSETPQKLREEAVKYFNETLDLMQKGENAEALESLRKAESSAQKAEDGPILFHILKVRGQLLQSLDMLEEALETYAFSLIMSEKLLSEDPENKLYTDTLHLNLNNLGNLGNAFQRMGNFPSSKQAYEIGIEICQNLLNSYPENEFYRMYAGNTLNNLGELLFTMGEPEEAKEKYEEALKTYSLLLKNSPEKPEYLSDTAMTLNNLGNLYSEKGQEAEAKENFEKALEILKKRSEKEPGNEKLREEIRITQEKLEAI” the protein production was “failed”.

In the case of “MLSVSWEYNFSFKKLNVPSFSVCRMLCGKLQNPLDHKKDEASHVKHASQGDVPFSGPLQVSKSNSFAWAKREKDDVCVRVHNRSLSRGYIPSLSGHSPAFNGKSDVESKINKDEKEDKTDSRGEESYEMVKRSMLKQWRQLERPDSFGASDEYHSQELSLGLYQRDEMAKKMGNNLVRP”, the protein production is reported as “failed”.

With “MLSVVSPNRSTARAARTPFWRRAAVGLCLLGVAMSGPLAAQDPAQVNTFIGSKDDGNTYPGASAPFGLIQVSPIGAHYAGWRYDDPSIRGFGHSFLSGAGCWEQGGQVSVLPVTGRIGPGGDFDTNDAKAFDQKRYAARYTHDGEVGQAGYYKVRLTDYGGIDAEASALTRAATERYTFAPGADTGHVLVNVAQANDRHVVIGSQLQIVGDRVVEGKLTTQSFCGGHEYTTWFRLEFDRPFTAHGVWGEEGGVPGARHGMGGELKPNGAWLSFPLGKDKNARAVTVVSAISHVDAQGARSNLRADGMQGGKLLSLEQMRQRAQNGWRNALASMQVEGASNDDRSVAYTALYHALLQPLTGSDADGRYRGYDDAIHRADGWTYYEYFSLWDTYRSQNQLLALLQPTRARDIGRSLLAIQQQGGWLPRWGYANFDTNIMTGDPVTPFLVDLWRFGALQGNEAEAYAALRQNAFGQPPINSRHAGRSGNANYLANGFVQYDRAFPSKGMDVDPHHGGSATLEYALADCALAQMAQALGHGEDAAQLRKRGGNWHRVWDADVRDAETGFAGFPRPRLEDGSWYAPSDDHYSPRSEHGFHEGTAWQYQWLVQQDIPGMLQAMHGSQQAGKRLDAFFAYDDLLKDPLTAARTHWVVGPYSYYNQYRYNPNNEPDLHAPWMYTLIGQPWKTATVVRAAQQLFTNAPNGVTGNDDLGTMSAWYLFSALGLYPAVPGSGQFLLHAPRFKRVTLNLGNGKRLRIDAPGADGRALQYVDNVRWNGKAQPQVFLDWAQLQQGGTLAFALTKQAPTQGWGTQADALPASFCATPQAQ” the protein production was “failed”.

With “MLTHHKNKLKTIEWTSYVWLAYLPYTIAAYIPVKSWHDWLWLLLVGGFLVLYILVVEKPHWRAVTMPAELVVTGLFAVFAANNFMIIFPGWQVSFLLGRRPKREFYGFALGYYAFLIGGCIRDYLQYPGVFGWHNGDVMGLVFPLLSPILAYTFSWSVERQRQLNQTNRRLKTIVERNERERIARDLHDTLGQSFSMITLKTELAKKLLVKAPEKVAPELDEIEQTSRQNLQLVREIVNNLHEQSLTEVLLAQTRNLAAVGVWTTTTGETQATKWPTTVQSCFAAVLVEAMTNVMRHAHAHEVRIDFVETAKIYQIKLKDDGKGGTLIRQGANGIAGMRTRLQAKQGTFAITSSRRGTQLILTLPKE” the protein production was “failed”.

In the case of “MLTHKTCQARKKMQVSFVIRDAEEKQHRNGVNALQLDANNGKLYSAGRDAIIRVWNTRTDSSEKYIQSMEHHNDWVNDIVLCCNGRNLISASCDTTVKVWNAQKGFCMSTLRTHRDYVQALAYAKDREQVASAGLDKAIFLWDVNTLTALTASNNTVTTSSLTGSKDSIYSLAMNPSGTVIVSGSTENILRIWDPRTCMRRMKLRGHTENVRCLVVSPDGNQVVSGSSDGTIKVWNLGQQRCVQTIHVHKEGVWSLLMSENFQYIISGSRDRNIIVTEMRNPSNKTLVCEEQAPVLSLGYNIDKTGVWATTWNSDIRCWKLPMYDRCTLNSSGGMDAQWTQGGTEVACIKGGAAIKECAVLNDKRYIITKDSQDQVVVYDVLRVVKKEQLGAVDFEAEVKKRNKQVYIPNWFTVDLKTGMPTIVLGQEEVDCFSAWVSIEAGLPECVDPTTEIKINYGKLLLEALLEYWTPPHSIPPNEMEPDMHGNGYFQVPKHTPVIFSEVGGRTVCRLLVRDAAGDSESTLLHETAPQWVTDVVIEKNIPKFLKIPFFLQPHPQMTKPERTKKDRLVANEFIQCRKVCEHVLEKVLNAETTPSGGNANNSLQNSQSDANSEGSQLPAEERIELWCNDVVVDPNMDLRTVRHFIWKQSTDLTFQYKTKQNFNYDGK”, the protein production is reported as “failed”.

For “MLTLHIGGIGIGEPLWFICNILVSFIFSYKLFNSILHNNNISYIFALIYTFSPAMAVLTYSTSWETVLSYAFSPLILYLLYLTFNNLELKGLSFDLILISIFMYVYYFDTDVIMWEGILVVSMLIYLTISHTNRKNCS”, the protein production was “failed”.

With “MLTLPAPEPIAHMEVTSYRAGVQGGSGLWRGQAVYVKTLVSDDPDRVAMFHHEGAVAARLSHPLVTPLLAHTPNQLIFPLLRGGTLRDLVRCGPLDADAATQVTWGVLQAVSHLHGRGVTHHDLKPENVLLIGGQSQVEAVRLIDFGMSHAAGLPLDIHSGTRMGTPQFMAPEQFQGVRGDPRSDLYSVGVLLFDCLAGHPPYADALGWLVGISEERAAAPGPSALHPLMLRAIQRDRDSRPQSAAEMLAALADARQQLGLPELEHIAPEGQTAGENA” the protein production was “failed”.

— a protein production outcome set (Wang et al. 2014)
